According to the RNAGym collection of RNA variant scans (doi:10.1073/pnas.2313332121):
This sample holds only a part of the variants without activity.

B1: TPR 5TU (parent)
chain: GGAUCUUCUCGAUCUAACAAAAAAGACAAAUCUGCCACAAAGCUUGAGAGCAUCUUCGGAUGCAGAGGCGGCAGCCUUCGGUGGCGCGAUAGCGCCAACGUUCUCAACUAUGACACGCAAAACGCGUGCUCCGUUGAAUGGAGUUUAUCAUG

Variants of: B1
Assay: polymerase ribozyme fitness, log enrichment relative to wild type (log ratio); higher = more active; in vitro selection for triplet polymerase activity
Outline: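 For each subunit of a heterodimeric triplet polymerase ribozyme, a mutant library was built by PCR and transcribed, then taken through a single in vitro selection round in triplicate. Selection involved annealing to a biotinylated primer, the partner subunit and triplets, incubation frozen at −7 °C, gel excision of extended constructs, capture on streptavidin beads and RT-PCR. Genotypes were retained after Illumina sequencing of inputs and outputs only with ≥10 input reads and ≥1 read in each output. Fitness is defined as the logarithm of a genotype's enrichment relative to wild-type enrichment, using inverse-variance-weighted averages across replicates, with the logarithm taken to base 2.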

Row | Variant | polymerase ribozyme fitness (log ratio)
1 | G50U U53A G58A A73G C79A C93A A107U C116G G136C | ≤ -4.2
2 | C51A G58C | -2.22
3 | G50A A60U C96U U127A | -3.79
4 | C51A C63U C85A G126A C129A G140A | ≤ -4.2
5 | G50U C99A | -1.59
6 | G50A A91U G100U C125A | ≤ -4.2
7 | G50A A52C | -3.13
8 | G50C G81A G86U C87A G136U | ≤ -4.2
9 | G50U C51U G58U C108G C123G | ≤ -4.2
10 | G50C A52C U56C C96U A107U | ≤ -4.2
11 | G50C G83U | -3.77
12 | G50U A120U C125G | -0.502
13 | G50C C63G G94C C103A C132U | -4.08
14 | G50C C85U | -2.99
15 | C51A C85U | -1.01
16 | G50U C95A U109C | ≤ -4.2
17 | G50A A115G | -2.49
18 | G50A C76U C93U A98C | -3.32
19 | G50C G81C C93G C95U A110C | ≤ -4.2
20 | G50U A52G C75A C85A G92C G126U G128A A147U | ≤ -4.2
21 | G50A G65A A89U U101A A106C | -4.2
22 | G50A C93U G152A | -3.09
23 | G50C C96U U134A | ≤ -4.2
24 | G50U C69U C99U | -3.41

Row | Variant | polymerase ribozyme fitness (log ratio)
25 | G50A A97G A138C | -4.01
26 | G50C C93G U104C | ≤ -4.2
27 | G50U U78C U139G | -3.06
28 | G50A U55A C87G C103U C116G | ≤ -4.2
29 | C51A C85U A89G U146A | -3.11
30 | G50A G84A C95G U146C | -0.861
31 | G50A C51U U55A C76A C105U C108G | ≤ -4.2
32 | C51A G58A G74C C96U A107C | ≤ -4.2
33 | G50U U56A C114U | -2.18
34 | G50U C57U G92C | -0.983
35 | G50U C85A | -1.4
36 | C51A C57G G68C A73C C76G G86U G100C A120G A122C U134A | ≤ -4.2
37 | G50U U56A G94U A106G C116G C123U | -0.9
38 | G50U A60C G84A | -2.47
39 | G50U A97U U102A G124A | -2.31
40 | G50U U144G U145A | 0.245
41 | A49U U61A C87A G140C | ≤ -4.2
42 | G50A U78G | -4.06
43 | G50C C87G C114A A115G | ≤ -4.2
44 | G50C C51U G92U | -2.09
45 | C51A C118G | -3.24
46 | G50C A52G C57U C93A | ≤ -4.2
47 | C51A A52C U146G | -2.06
48 | A49U U82G | -0.129

Row | Variant | polymerase ribozyme fitness (log ratio)
49 | C51A C75U C95U A106C G128U | ≤ -4.2
50 | G50U A66C C69U A73C | ≤ -4.2
51 | G50U G80A G92A A115U | ≤ -4.2
52 | G50U A73U C87U | -2.26
53 | G50C A122C G143A | -4.06
54 | G50C G59C G83A | -3.91
55 | C51A C99G | -4.07
56 | G50U G81A U102G | -2.74
57 | G50U G81C U134A | -2.19
58 | G50C C96A | -3.01
59 | G50C U102G | -3.32
60 | G50U A66U C69G U135C | ≤ -4.2
61 | G50C A91G | -4
62 | G50C C51U C87U G152U | ≤ -4.2
63 | G50C C69A C79A U82G U90G A107G A120G C129G U139G C149G | ≤ -4.2
64 | G50C U78A G92A | ≤ -4.2
65 | G50C C57A A66C C85G | ≤ -4.2
66 | G50C A52C C54U G88A C96G | ≤ -4.2
67 | G50A C85G C93A C129G | ≤ -4.2
68 | G50A G92A A106G | ≤ -4.2
69 | G50C G83U C93A G100U G124C G128U C132G U145G | ≤ -4.2
70 | G50C C96G U144C | ≤ -4.2
71 | G50C A64G A89C G94C U101G A106U G133U | -4.12
72 | G50U G81A C95U | 0.505

Row | Variant | polymerase ribozyme fitness (log ratio)
73 | G50U G86A C93U C96U | -0.529
74 | G50A G84U G141U | -3.31
75 | G50C G59A U145C | -3.51
76 | C51A C96A A115G A137U | ≤ -4.2
77 | G50U U102G | -2.92
78 | G50U U102A | -0.888
79 | G50C U101G | -2.64
80 | G50A G86U | -3.78
81 | G50A G86A | -3.01
82 | G50C U61A A110U U145G | ≤ -4.2
83 | G50A C72U A98C C99A | ≤ -4.2
84 | G50U A122G | -0.236
85 | G50A A106G C118U | -1.6
86 | C51A A137C | ≤ -4.2
87 | G50A C76G C93G U102A U135G A150G | ≤ -4.2
88 | G50U C85A U144A U145C | -1.01
89 | G50A G84A | -2.43
90 | G50A G84U | -1.58
91 | G50A A91G C99U C103G | ≤ -4.2
92 | G50C U61A G62U A142C | -2.79
93 | G50C C103A C149U | ≤ -4.2
94 | G50U U55A G71U | -3.35
95 | G50A C75U C76U C114G G152U | -4.02
96 | G50U G67U C85G C103U G140A A147G | ≤ -4.2

Row | Variant | polymerase ribozyme fitness (log ratio)
97 | G50A C69U G84U A98U A122G | ≤ -4.2
98 | G50C C54U C85U C125U | -4.17
99 | G50A G83C U146G | -2.55
100 | G50U G126A G141C | -4.02
101 | G50A U145C | -0.761
102 | G50U C125G | -0.442
103 | C51A A66G G71A G80C G94C A113G | ≤ -4.2
104 | G50U C63U C79G C131G A137C | ≤ -4.2
105 | G50C A52C | -2.71
106 | G50C C76U | -1.88
107 | G50U G83U C85G | -4.13
108 | G50C G67A U90G A142G | ≤ -4.2
109 | G50A U55A G70A G83C U101A U104A C105G G124U | ≤ -4.2
110 | G50A G59A G133U | ≤ -4.2
111 | G50A G84A U101C G117C U146G | -0.884
112 | G50U C87U C96A | -1.48
113 | G50C A64C U82G C87G A106U A122C | ≤ -4.2
114 | G50A C54U U55A A73G | ≤ -4.2
115 | G50U G70A G136U | ≤ -4.2
116 | G50A U102A | -3.08
117 | G50C C95G U101G A115U C118G A122C G126U | ≤ -4.2
118 | G50C C76A G83U C103A C132G U145G | ≤ -4.2
119 | G50U U56A G83A | -0.268
120 | G50A U55A C95A | -1.86

Row | Variant | polymerase ribozyme fitness (log ratio)
121 | G50A C51A C114U U134C G136A U151G | ≤ -4.2
122 | G50U A64G C103G C125A A142G | ≤ -4.2
123 | G50A G70A | -3.76
124 | G50C G94A C129U U135G | ≤ -4.2
125 | G50C C51A | -0.896
126 | G50C U56C C87G A89C G100C A120G C125U | ≤ -4.2
127 | G50A A60C G62A C76U C96U G100U C108G | ≤ -4.2
128 | G50A C57U C85U G128A | ≤ -4.2
129 | G50U C54G A150U | -2.15
130 | G50C G59C G62A G68C C95U U148C | ≤ -4.2
131 | C51A A52G | -0.455
132 | G50C A66C A91U A106C A137C U148A | ≤ -4.2
133 | G50U A106G | 0.264
134 | C51A C85A U134C | -2.88
135 | G50C A73G C87A | ≤ -4.2
136 | G50A C96U G141U | -0.125
137 | G50U C75G G86U C87A A89U | ≤ -4.2
138 | G50A G86A C132U G143C C149G | ≤ -4.2
139 | G50U A66C C76U U82G A89G A138U | ≤ -4.2
140 | G50C C57G U77A G81A G86C C96A G143A | ≤ -4.2
141 | G50A A52C G81C | -2.82
142 | G50C A64U G100U U111C G136C | ≤ -4.2
143 | G50U G83A | -0.347
144 | G50U G83C | -0.813

Row | Variant | polymerase ribozyme fitness (log ratio)
145 | G50C C54U | -2.6
146 | G50C G59A | -3.03
147 | G50C C87U | -3.6
148 | G50C U56A | -2.92
149 | G50A C87U A97U | -3.34
150 | G50C U55A | -3.29
151 | G50A G62A G117A | -1.7
152 | G50U C87U G152U | -4.17
153 | G50A C76U C96A A121G | -1.1
154 | G50C C118G G140A | ≤ -4.2
155 | G50C C51G A52U C76U G84U C105U C114U G133A | ≤ -4.2
156 | G50C G141U | -2.26
157 | G50C U90C U104G | ≤ -4.2
158 | G50U C96A C116G U144G | -1.25
159 | G50A C51U U55A G84A C87A C93A C108U G140C U146C | ≤ -4.2
160 | G50U G86A | -2.57
161 | G50U G86U | -1.71
162 | G50C U56A U78A G83A G94U C95A | ≤ -4.2
163 | G50C A142U | -3.9
164 | G50A G58C C76U C85G G141U | -4.1
165 | G50U G94A U102C C103U | -3.63
166 | G50U G92A | -2.93
167 | G50A G65A C85U | -3.49
